Legend:
Test in all cases: cell-based or functional assay
[1] = biological target: human melanocortin receptor 4 (hMCR4), native form (human) (UniProt P32245)
[2] = biological target: αF-hSSTR3 (yeast; human)
[3] = biological target: All the receptor forms tested (hNocR, Ste2-hNocR, Inv-hNocR, αF-hNocR) in the stp22 strains

αF-hSSTR3 (yeast; human), sequence (P01149 other isoform, or with tags, fused parts or gaps): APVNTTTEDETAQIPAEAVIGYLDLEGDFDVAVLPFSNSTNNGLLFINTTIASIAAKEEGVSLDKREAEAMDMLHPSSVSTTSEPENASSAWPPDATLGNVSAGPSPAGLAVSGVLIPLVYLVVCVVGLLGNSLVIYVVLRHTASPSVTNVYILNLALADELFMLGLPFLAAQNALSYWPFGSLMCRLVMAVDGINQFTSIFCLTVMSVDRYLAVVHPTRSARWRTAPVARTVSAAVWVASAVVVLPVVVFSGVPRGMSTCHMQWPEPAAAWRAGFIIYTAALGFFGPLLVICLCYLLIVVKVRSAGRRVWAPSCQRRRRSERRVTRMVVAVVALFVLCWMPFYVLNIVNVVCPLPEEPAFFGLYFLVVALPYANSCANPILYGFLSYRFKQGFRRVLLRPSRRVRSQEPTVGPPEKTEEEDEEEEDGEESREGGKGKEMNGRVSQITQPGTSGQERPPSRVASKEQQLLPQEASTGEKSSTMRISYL
UniProt P32245, sequence (P32245 whole entry): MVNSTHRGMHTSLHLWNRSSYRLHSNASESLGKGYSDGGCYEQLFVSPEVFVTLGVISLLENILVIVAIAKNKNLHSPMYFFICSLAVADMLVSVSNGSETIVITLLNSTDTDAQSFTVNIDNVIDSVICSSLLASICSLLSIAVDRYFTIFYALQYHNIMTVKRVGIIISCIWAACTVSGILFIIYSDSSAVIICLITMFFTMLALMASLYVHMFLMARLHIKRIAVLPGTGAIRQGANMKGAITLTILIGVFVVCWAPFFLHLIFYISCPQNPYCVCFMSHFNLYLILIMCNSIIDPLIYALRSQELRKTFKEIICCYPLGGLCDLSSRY

Q: How did the Specific ligand-induced levels of β-galactosidase activity (FUS1-lacZ), stp22 strain compared with wild type [1] turn out when NDP-α-MSH (peptide) was run?
A: The Specific ligand-induced levels of β-galactosidase activity (FUS1-lacZ), stp22 strain compared with wild type was 2 fold.

Q: With AGCKNFFWKTFTSC (peptide, UniProt P61278 103-116, looked up) [Somatostatin-14] as the molecule, how does the decrease of EC50 of FUS1-lacZ induction, stp22 strain compared with wild type [2] read?
A: Its decrease of EC50 of FUS1-lacZ induction, stp22 strain compared with wild type is 50%.

Q: What about the levels of FUS1-lacZ induction (β-galactosidase activity), stp22 strain compared with wild type [2] of the same molecule?
A: Its levels of FUS1-lacZ induction (β-galactosidase activity), stp22 strain compared with wild type is 2 fold.

Q: How did the maximal increase in the levels of β-galactosidase activity (FUS1-lacZ induction), stp22 strains [3] turn out when FGGFTGARKSARKLANQ (peptide, UniProt Q13519 130-146, looked up) [nociceptin] was run?
A: Its maximal increase in the levels of β-galactosidase activity (FUS1-lacZ induction), stp22 strains is 10 to 40 fold.
